From patent US20100143365A1

Tests used:
[1] = biological target: human fibrillar Aβ42 (human) (UniProt P05067); assay: ELISA, Aβ fibrils
[2] = biological target: lysozyme Gallus gallus fibrils (Gallus gallus) (UniProt P00698); assay: ELISA, lysozyme fibrils
Sequence of UniProt P00698 (P00698 other isoform, or with tags, fused parts or gaps limits assumed): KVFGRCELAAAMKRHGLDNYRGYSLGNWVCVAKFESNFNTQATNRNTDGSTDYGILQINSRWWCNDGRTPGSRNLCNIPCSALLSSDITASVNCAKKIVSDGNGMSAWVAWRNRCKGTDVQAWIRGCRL

Sequence of UniProt P05067 (P05067 672-713 limits assumed): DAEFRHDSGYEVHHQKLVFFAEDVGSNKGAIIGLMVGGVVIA

B1: scFv21 (anti-amyloid scFv designated Pan 21′) (scFv)
scFv: DKLMAEVQLLESGGGLVQPGGSLRLSCAASGFTFSSYAMSWVRQAPGKGLEWVSSIQKSGEKTHYADSVKGRFTISRDNSKNTLYLQMNSLRAEDTAVYYCAKKRTLFDYWGQGTLVTVSSGGGGSGGGGSGGGGSTDIQMTQSPSSLSASVGDRVTITCRASQSISSYLNWYQQKPGKAPKLLIYRASYLQSGVPSRFSGSGSGTDFTLTISSLQPEDFATYYCQQSYSLPTTFGQGTKVEIKRAAAHHHHHHGAAEQKLISEEDLN
**Q.** B1 was tested. Which OD Values [1] did it give?
**A.** 0.011 OD

**Q.** And the OD Values [2]?
**A.** 0.095 OD
